Experimental findings from publication PMC8125178, “Fluorescence Correlation Spectroscopy Analysis of Effect of Molecular Crowding on Self-Assembly of β-Annulus Peptide into Artificial Viral Capsid” (International Journal of Molecular Sciences, 2021) are described below.

Data set [1] concerns the target T1, BODIPY-β-annulus peptide (tomato bushy stunt virus, BODIPY-maleimide added by Michael addition to the thiol of the N-terminal Cys).
T1 construct: also called BODIPY-labelled β-annulus peptide; fluorescent-labelled β-annulus peptide; source: synthetic peptide (solid-phase Fmoc chemistry; labelled with BODIPY-maleimide; purified by reversed-phase HPLC)
T1 peptide: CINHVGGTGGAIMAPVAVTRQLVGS
The experiment in a line: fluorescence correlation spectroscopy (FCS); 0.1 μM BODIPY-β-annulus peptide with 0~200 μM β-annulus peptide in 10 mM Tris-HCl buffer (pH 7.0) with 20 wt% PEG2000, 25 °C; ratio of the slow component fitted to the Hill equation. Conditions: both partners purified.

The target in data set [2] is T1, BODIPY-β-annulus peptide. The experiment in a line: fluorescence correlation spectroscopy (FCS); 0.1 μM BODIPY-β-annulus peptide with 0~200 μM β-annulus peptide in 10 mM Tris-HCl buffer (pH 7.0) with 10 wt% PEG2000, 25 °C; ratio of the slow component fitted to the Hill equation. Conditions: both partners purified.
In data set [3] the target is T1, BODIPY-β-annulus peptide. The experiment in a line: fluorescence correlation spectroscopy (FCS); 0.1 μM BODIPY-β-annulus peptide with 0~200 μM β-annulus peptide in 10 mM Tris-HCl buffer (pH 7.0) with 5 wt% PEG2000, 25 °C; ratio of the slow component fitted to the Hill equation. Conditions: both partners purified.
Data set [4] concerns the molecule itself. The data set is described as above.
Data set [5] addresses T1, BODIPY-β-annulus peptide. The description is as above. Conditions: both partners purified.
The target in data set [6] is T1, BODIPY-β-annulus peptide. Nature of the data set: fluorescence correlation spectroscopy (FCS); 0.1 μM BODIPY-β-annulus peptide with 0~200 μM β-annulus peptide in 10 mM Tris-HCl buffer (pH 7.0), sonicated 10 min, incubated 30 min, 25 °C; ratio of the slow component fitted to the Hill equation; apparent Kd. Conditions: both partners purified.
The target of data set [7] is T1, BODIPY-β-annulus peptide. The experiment in a line: fluorescence correlation spectroscopy (FCS); 0.1 μM BODIPY-β-annulus peptide with 0~200 μM β-annulus peptide in 10 mM Tris-HCl buffer (pH 7.0) with 15 wt% PEG2000, 25 °C; ratio of the slow component fitted to the Hill equation. The conditions noted are these: both partners purified.
In data set [8] the target is T1, BODIPY-β-annulus peptide. Nature of the data set: fluorescence correlation spectroscopy (FCS); 0.1 μM BODIPY-β-annulus peptide with 0~200 μM β-annulus peptide in 10 mM Tris-HCl buffer (pH 7.0), sonicated 10 min, incubated 30 min, 25 °C; ratio of the slow component fitted to the Hill equation; apparent Kd. Conditions: both partners purified.

B1: 24-mer β-annulus peptide from tomato bushy stunt virus (peptide)
peptide: INHVGGTGGAIMAPVAVTRQLVGS
notes: also called unmodified β-annulus peptide; source: synthetic peptide (solid-phase Fmoc chemistry, purified by reversed-phase HPLC)
Consider B1, for which the Kd in data set [1] came to 5.66 ± 2.15 µM; in data set [2], 6.69 ± 3.25 µM; in data set [3], 14.4 ± 7.81 µM; in data set [7] it was 4.24 ± 3.22 µM; in data set [8] it was 45.2 ± 10.6 µM. Besides, the binding result in data set [4] is “binds”. Moreover, the entries for the “ratio of the slow component at 200 μM β-annulus” value in data set [5] and in data set [6] were 76% and 62%, respectively.
